Where two headings read alike, the source gives them in different places.
Tests used:
[1] = target: T1, ROR1 expressed on cell surface (Jeko-1 cell line, AMB-LC-0003T and AMB-LC-0002T patient-derived lung cancer … (human, UniProt Q01973 30-937)); assay: cell-based or functional assay
[2] = target: T1, ROR1 expressed on cell surface (Jeko-1 …); assay: cell-based or functional assay; remark: listed apart in the source
[3] = target: T2, mouse ROR1 (mouse, UniProt Q9Z139 30-403, limits assumed); assay: ELISA, IgG on coated mouse ROR1, OD450
T2 construct: also called mouse ROR1 protein
Method: (§1) A 96-well plate was coated at 4° C. for 16 hours with each of human ROR1 and mouse ROR1 proteins at a concentration of 2 μg/ml and then blocked using […]. […] After washing with PBST and distilled water, binding at room temperature for 1 hour using a goat-derived HRP-conjugated anti-human antibody (Invitrogen, 31482, Goat anti-Human IgG F(ab′)₂ Secondary Antibody, HRP) and then washing again using PBST and distilled water were performed. After color development by adding TMB substrate solution (Thermo Scientific, 34029, 1-Step™ Ultra TMB-ELISA Substrate Solution), the color reaction was stopped with stop solution (Invitrogen, SS04, ELISA Stop Solution), and the absorbance was measured at OD 450 nm. It was confirmed that the anti-ROR1 antibody of the present invention and the modified antibody thereof with improved biological and physical properties […] to human ROR1 and mouse ROR1 (FIG. 2).

[4] = target: T3, human ROR1 (human, UniProt Q01973 30-403, limits assumed); assay: SPR (Biacore 3000), human ROR1 on CM5 chip, IgG injected, 1:1 Langmuir
T3 construct: also called human ROR1 protein
Method: (§2) To more quantitatively analyze the binding ability of the anti-ROR1 antibody to ROR1, SPR (surface plasmon resonance) was performed. A Biacore 3000 device (GE Healthcare) was used. Using the amine coupling method, human ROR1 or mouse ROR1 was diluted with 10 mM sodium acetate, pH 4.5 and immobilized on a CM5 sensor chip (GE Healthcare) at 300 response units (RU). The activated portion remaining on the surface of the sensor chip was deactivated by adding 1 M ethanolamine-HCl (pH 8.5).

[5] = target: T3, human ROR1; assay: ELISA, IgG on coated human ROR1, OD450
Method: as §1

[6] = target: T2, mouse ROR1; assay: SPR (Biacore 3000), mouse ROR1 on CM5 chip, IgG injected, 1:1 Langmuir
Method: as §2

[7] = target: T1, ROR1 expressed on cell surface (Jeko-1 …); assay: flow cytometry on Jeko-1 cells
Method: Before therapeutic use of anti-ROR1 antibodies, it is very important to determine whether the antibody binds to the antigen expressed on the cell surface. The cell binding ability of anti-ROR1 antibodies developed by the present inventors was measured using FACS in Jeko-1 cell line and AMB-LC-0003T patient-derived cells, which were confirmed to have high ROR1 expression. Each cell type was dispensed at 1×10⁵ cells/100 μl FACS buffer per well in a 96-well plate.
Cell binding ability analysis was performed using anti-ROR1 candidate antibodies P015004, P015042, P015043, P015044, P015042v1 with improved biological and physical properties, and P015042v1-6, one of modified materials thereof. Each antibody was serially diluted 10-fold from 100 nM to 10 nM, 1 nM, 100 pM, 10 pM, and 1 pM and the cells were treated therewith. After reaction at 4° C. for 30 minutes, washing was performed twice. PE-labeled goat anti-human IgG Fc PE (ThermoFisher; 12-4998-82) as a secondary antibody was diluted at a ratio of 1:100 in FACS buffer, and 100 μl thereof was dispensed per well. Reaction again at 4° C. for 30 minutes and washing twice were performed. Finally, 100 μl of FACS buffer was dispensed per well, followed by mixing well with a pipette and then flow cytometry using a NovoCyte flow cytometer (Agilent). Analysis was performed using GraphPad Prism 9.3.1, and EC₅₀ values were obtained using a log (agonist) vs. response-Variable slope nonlinear graph model.

[8] = target: T4, Ig-like (human, UniProt Q01973); assay: ELISA, IgG on coated domain, OD450
T4 construct: Ig-like domain, His tag; also called Ig-like domain; human ROR1-immunoglobulin domain
Method: (§3) ELISA was performed to analyze the binding domain using the IgG antibody of the selected clone.
(§4) After washing with PBST and distilled water, binding at room temperature for 1 hour using a goat-derived HRP-conjugated anti-human antibody (Invitrogen, 31482, Goat anti-Human IgG F(ab′)₂ Secondary Antibody, HRP) and then washing again using PBST and distilled water were performed. After color development by adding TMB substrate solution (Thermo Scientific, 34029, 1-Step™ Ultra TMB-ELISA Substrate Solution), the color reaction was stopped with stop solution (Invitrogen, SS04, ELISA Stop Solution), and the absorbance was measured at OD 450 nm. The anti-ROR1 antibody clone binding to each domain was analyzed through ELISA (FIG. 3).

[9] = target: T5, FZD+KRD (human, UniProt Q01973); assay: ELISA, IgG on coated domain, OD450
T5 construct: frizzled plus kringle domains, His tag; also called FK domain; human ROR1-frizzled-kringle domain
Method: as §3, §4

[10] = target: T6, FZD (human, UniProt Q01973); assay: ELISA, IgG on coated domain, OD450
T6 construct: frizzled domain, His tag; also called Frizzled domain; human ROR1-frizzled domain
Method: as §3, §4

T2 sequence (Q9Z139 30-403 limits assumed): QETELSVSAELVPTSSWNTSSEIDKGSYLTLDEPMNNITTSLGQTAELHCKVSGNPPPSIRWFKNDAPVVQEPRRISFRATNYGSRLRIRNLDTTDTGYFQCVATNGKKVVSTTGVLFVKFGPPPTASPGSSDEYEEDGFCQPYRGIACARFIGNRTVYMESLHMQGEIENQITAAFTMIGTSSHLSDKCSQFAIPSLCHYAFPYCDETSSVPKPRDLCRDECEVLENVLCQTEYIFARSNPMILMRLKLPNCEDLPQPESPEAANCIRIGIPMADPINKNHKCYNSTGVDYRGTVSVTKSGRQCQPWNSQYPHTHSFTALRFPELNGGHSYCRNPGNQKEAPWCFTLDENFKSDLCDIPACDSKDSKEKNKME
T1 sequence (Q01973 30-937): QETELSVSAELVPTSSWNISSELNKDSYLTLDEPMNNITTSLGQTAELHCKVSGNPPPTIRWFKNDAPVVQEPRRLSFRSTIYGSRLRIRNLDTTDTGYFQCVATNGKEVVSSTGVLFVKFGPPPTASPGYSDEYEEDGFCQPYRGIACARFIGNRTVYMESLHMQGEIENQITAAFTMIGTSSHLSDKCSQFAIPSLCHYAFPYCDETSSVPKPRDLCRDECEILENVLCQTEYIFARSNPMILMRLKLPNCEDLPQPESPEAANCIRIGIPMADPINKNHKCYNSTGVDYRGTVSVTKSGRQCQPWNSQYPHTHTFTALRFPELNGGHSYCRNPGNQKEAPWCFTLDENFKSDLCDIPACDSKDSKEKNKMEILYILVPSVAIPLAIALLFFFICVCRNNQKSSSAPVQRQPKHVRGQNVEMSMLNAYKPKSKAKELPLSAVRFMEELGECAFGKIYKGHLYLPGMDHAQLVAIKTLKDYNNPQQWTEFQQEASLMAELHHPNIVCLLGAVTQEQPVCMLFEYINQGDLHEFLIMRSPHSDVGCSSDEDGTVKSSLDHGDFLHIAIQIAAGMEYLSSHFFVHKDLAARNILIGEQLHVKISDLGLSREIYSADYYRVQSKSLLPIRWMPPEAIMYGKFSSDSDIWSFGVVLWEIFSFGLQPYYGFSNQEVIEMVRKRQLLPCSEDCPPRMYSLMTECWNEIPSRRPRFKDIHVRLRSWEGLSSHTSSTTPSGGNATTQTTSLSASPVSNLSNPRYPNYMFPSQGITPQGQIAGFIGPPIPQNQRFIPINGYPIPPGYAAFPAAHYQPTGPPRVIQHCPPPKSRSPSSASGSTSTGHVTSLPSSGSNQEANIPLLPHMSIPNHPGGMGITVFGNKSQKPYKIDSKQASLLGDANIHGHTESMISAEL
T3 sequence (Q01973 30-403 limits assumed): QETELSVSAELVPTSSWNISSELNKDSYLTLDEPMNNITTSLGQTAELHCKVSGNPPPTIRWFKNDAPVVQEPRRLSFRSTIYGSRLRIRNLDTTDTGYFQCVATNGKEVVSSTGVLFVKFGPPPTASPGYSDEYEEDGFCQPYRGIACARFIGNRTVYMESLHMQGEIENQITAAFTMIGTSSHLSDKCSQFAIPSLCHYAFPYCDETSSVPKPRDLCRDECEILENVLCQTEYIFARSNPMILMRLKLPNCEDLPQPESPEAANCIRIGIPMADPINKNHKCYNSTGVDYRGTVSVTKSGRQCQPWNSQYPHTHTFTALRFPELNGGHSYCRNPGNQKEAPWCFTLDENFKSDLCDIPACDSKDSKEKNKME
T4 sequence (Q01973 39-151 limits assumed): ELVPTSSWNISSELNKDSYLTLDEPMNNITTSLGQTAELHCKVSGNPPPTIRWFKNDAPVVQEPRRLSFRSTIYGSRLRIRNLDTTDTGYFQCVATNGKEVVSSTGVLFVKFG
T5 sequence (Q01973 165-395 limits assumed): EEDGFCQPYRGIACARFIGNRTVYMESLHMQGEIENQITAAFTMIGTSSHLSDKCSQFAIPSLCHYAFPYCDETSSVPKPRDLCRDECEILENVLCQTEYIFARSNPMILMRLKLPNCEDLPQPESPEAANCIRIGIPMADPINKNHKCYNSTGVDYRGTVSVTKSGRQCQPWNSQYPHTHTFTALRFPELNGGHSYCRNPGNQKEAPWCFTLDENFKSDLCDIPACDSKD
T6 sequence (Q01973 165-305 limits assumed): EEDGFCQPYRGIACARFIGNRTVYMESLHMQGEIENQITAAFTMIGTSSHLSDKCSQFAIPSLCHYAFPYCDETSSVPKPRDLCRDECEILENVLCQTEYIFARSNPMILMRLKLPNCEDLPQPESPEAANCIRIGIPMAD

Row | Binder | Fold Change of IC50, AMB-LC-0002T/AMB-LC-0003T [1] | IC50 (nM), spheroid volume after 6 days of treatment, AMB-LC-0003T (high ROR1 expression) [1] | IC50 (nM), spheroid volume, AMB-LC-0002T (very low ROR1 expression) [1] | Fold Change of IC50, AMB-LC-0002T/AMB-LC-0003T [2] | IC50 (nM), spheroid volume, AMB-LC-0002T (low ROR1 expression) [2] | IC50 (nM), spheroid volume, AMB-LC-0003T (high ROR1 expression) [2] | EC50 (read off the curve) [3] | Kd [4] | koff [4] | kon [4] | EC50 (read off the curve) [5] | Kd [6] | koff [6] | kon [6] | EC50 [7] | binding result [8] | EC50 (read off the curve) [9] | binding result [9] | binding result [10]
1 | P015044-vc-PAB-MMAE (antibody, IgG1, V domains shown, maleimidocaproyl-valine-citrulline-p-aminobenzyloxycarbonyl monomethyl auristatin E on cysteine sulfhydryls of reduced disulfides; positions not given; average 3.0 drugs per antibody) VH: EVQLLESGGGLVQPGGSLRLSCAASGFTFSNYAMHWVRQAPGKGLEWVSIIYPDDDTRYNPSFRGRFTISRDNSKNTLYLQMNSLRAEDTAVYYCARDLLYAGDYWGQGTLVTVSS VL: QSVLTQPPSASGTPGQRVTISCGGNNIESKAVHWYQQLPGTAPKLLIYANNKRPSGVPDRFSGSKSGTSASLAISGLRSEDEADYYCQSYDSNKVVFGGGTKLTVL | 22.7 fold | 5.38 nM | 122 nM | 39.7 fold | 261 nM | 6.59 nM | – | – | – | – | – | – | – | – | – | – | – | – | –
2 | P015042v1-5 (antibody, V domains shown, Variant of P015042v1, tested as IgG; also called LC G95 substituted with A) VH: EVQLLESGGGLVQPGGSLRLSCAASGFTFSDYAMSWVRQAPGKGLEWVSVISSDGGSIYYADSVKGRFTISRDNSKNTLYLQMNSLRAEDTAVYYCAKDRSRDMEVDFDYWGQGTLVTVSS VL: QSVLTQPPSASGTPGQRVTISCSGSSSNIGSNYVTWYQQLPGTAPKLLIYDSSQRPSGVPDRFSGSKSGTSASLAISGLRSEDEADYYCGTWDYSLNAYVFGGGTKLTVL | – | – | – | – | – | – | ~0.3 nM | 0.00748 nM | 1.89e-05 s⁻¹ | 2.53e+06 M⁻¹ s⁻¹ | ~0.5 nM | 0.0416 nM | 0.000106 s⁻¹ | 2.54e+06 M⁻¹ s⁻¹ | – | – | – | – | –
3 | P015042v1-6 (antibody, V domains shown, Variant of P015042v1, tested as IgG) VH: EVQLLESGGGLVQPGGSLRLSCAASGFTFSDYAMSWVRQAPGKGLEWVSVISSDKGSIYYADSVKGRFTISRDNSKNTLYLQMNSLRAEDTAVYYCAKDRSRDMEVDFDYWGQGTLVTVSS VL: QSVLTQPPSASGTPGQRVTISCSGSSSNIGSNYVTWYQQLPGTAPKLLIYDKSQRPSGVPDRFSGSKSGTSASLAISGLRSEDEADYYCGTWDYSLNAYVFGGGTKLTVL | – | – | – | – | – | – | ~1 nM | 0.0912 nM | 0.000157 s⁻¹ | 1.72e+06 M⁻¹ s⁻¹ | ~0.5 nM | 0.802 nM | 0.0015 s⁻¹ | 1.87e+06 M⁻¹ s⁻¹ | 0.011 nM | – | – | – | –
4 | P015002 (antibody, V domains shown) VH: EVQLLESGGGLVQPGGSLRLSCAASGFTFSDYSMSWVRQAPGKGLEWVSGISHNGGSTYYADSVKGRFTISRDNSKNTLYLQMSSLRAEDTAVYYCARDVSRWSKTRWSYDNAMDVWGQGTLVTVSS VL: QSVLTQPPSASGTPGQRVTISCTGSSSNIGSNYVSWYRQLPGTAPKLLIYSDSNRPSGVPDRFSGSKSGTSASLAISGLRSEDEADYYCATWDASLSAYVFGGGTKLTVL | – | – | – | – | – | – | ~3 nM | 3.71 nM | 0.000202 s⁻¹ | 54300 M⁻¹ s⁻¹ | ~2 nM | 6 nM | 0.000278 s⁻¹ | 46400 M⁻¹ s⁻¹ | – | no binding (tested: 300 nM) | – | – | –
5 | P015001 (antibody, V domains shown) VH: EVQLLESGGGLAQPGGSLRLSCAASGFTFSNYDMSWVRQAPGKGPEWVSGIYSGNSNTYYADSVKGRFTISRDNSKNTLYLQMNSLRAEDTAVYYCARDLQYTEWAGFDYWGQGTLVTVSS VL: QSVLTQPPSASGTPGQRVTISCSGSSSNIGSNDVTWYQQLPGTAPKLLIYDDSKRPSGVPDRFSGSKSGTSASLAISGLRSEDEADYYCAAWDDSLSGYVFGGGTKLTVL | – | – | – | – | – | – | – | 0.63 nM | 0.00264 s⁻¹ | 4.18e+06 M⁻¹ s⁻¹ | ~1 nM | 230 nM | 0.129 s⁻¹ | 564000 M⁻¹ s⁻¹ | – | – | – | no binding (tested: 300 nM) | no binding (tested: 300 nM)
6 | P015043 (antibody, V domains shown) VH: EVQLLESGGGLVQPGGSLRLSCAASGFTFSNYDMSWVRQAPGKGLEWVSWISPGGSSIYYADSVKGRFTISRDNSKNTLYLQMNSLRAEDTAVYYCAKTLTRFDYWGQGTLVTVSS VL: QSVLTQPPSASGTPGQRVTISCTGSSSNIGNNNVSWYQQLPGTAPKLLIYYDSHRPSGVPDRFSGSKSGTSASLAISGLRSEDEADYYCGTWDSSLSGYVFGGGTKLTVL | – | – | – | – | – | – | – | – | – | – | – | – | – | – | – | no binding (tested: 300 nM) | – | – | –

Second part, the binder after the results:

Row | Fold Change of IC50, AMB-LC-0002T/AMB-LC-0003T [1] | IC50 (nM), spheroid volume after 6 days of treatment, AMB-LC-0003T (high ROR1 expression) [1] | IC50 (nM), spheroid volume, AMB-LC-0002T (very low ROR1 expression) [1] | Fold Change of IC50, AMB-LC-0002T/AMB-LC-0003T [2] | IC50 (nM), spheroid volume, AMB-LC-0002T (low ROR1 expression) [2] | IC50 (nM), spheroid volume, AMB-LC-0003T (high ROR1 expression) [2] | EC50 (read off the curve) [3] | Kd [4] | koff [4] | kon [4] | EC50 (read off the curve) [5] | Kd [6] | koff [6] | kon [6] | EC50 [7] | binding result [8] | EC50 (read off the curve) [9] | binding result [9] | binding result [10] | Binder
7 | – | – | – | – | – | – | ~0.3 nM | 0.0262 nM | 7.95e-05 s⁻¹ | 3.03e+06 M⁻¹ s⁻¹ | ~0.5 nM | 0.127 nM | 0.000548 s⁻¹ | 4.3e+06 M⁻¹ s⁻¹ | – | – | – | – | – | P015042v1-3 (antibody, V domains shown, Variant of P015042v1, tested as IgG; also called LC S51 substituted with A) VH: EVQLLESGGGLVQPGGSLRLSCAASGFTFSDYAMSWVRQAPGKGLEWVSVISSDGGSIYYADSVKGRFTISRDNSKNTLYLQMNSLRAEDTAVYYCAKDRSRDMEVDFDYWGQGTLVTVSS VL: QSVLTQPPSASGTPGQRVTISCSGSSSNIGSNYVTWYQQLPGTAPKLLIYDASQRPSGVPDRFSGSKSGTSASLAISGLRSEDEADYYCGTWDYSLNGYVFGGGTKLTVL
8 | – | – | – | – | – | – | ~0.3 nM | 0.0213 nM | 4.34e-05 s⁻¹ | 2.04e+06 M⁻¹ s⁻¹ | ~0.5 nM | 0.132 nM | 0.000282 s⁻¹ | 2.14e+06 M⁻¹ s⁻¹ | – | – | – | – | – | P015042v1-4 (antibody, V domains shown, Variant of P015042v1, tested as IgG; also called LC S51 substituted with K) VH: EVQLLESGGGLVQPGGSLRLSCAASGFTFSDYAMSWVRQAPGKGLEWVSVISSDGGSIYYADSVKGRFTISRDNSKNTLYLQMNSLRAEDTAVYYCAKDRSRDMEVDFDYWGQGTLVTVSS VL: QSVLTQPPSASGTPGQRVTISCSGSSSNIGSNYVTWYQQLPGTAPKLLIYDKSQRPSGVPDRFSGSKSGTSASLAISGLRSEDEADYYCGTWDYSLNGYVFGGGTKLTVL
9 | – | – | – | – | – | – | ~1 nM | 0.4 nM | 6.78e-05 s⁻¹ | 169000 M⁻¹ s⁻¹ | ~1 nM | 0.833 nM | 0.0001 s⁻¹ | 120000 M⁻¹ s⁻¹ | – | no binding (tested: 300 nM) | ~6 nM | – | – | P015005 (antibody, V domains shown) VH: EVQLLESGGGLVQPGGSLRLSCAASGFTFSDYSMSWVRQAPGKGLEWVSGISHNGGSTYYADSVKGRFTISRDNSKNTLYLQMSSLRAEDTAVYYCARDVSRWSKTRWSYDNAMDVWGQGTLVTVSS VL: QSVLTQPPSASGTPGQRVTISCSGSSSNIGSNYVNWYQQLPGTAPKLLIYSDSHRPSGVPDRFSGSKSGTSASLAISGLRSEDEADYYCGSWDSSLNAYVLGGGTKLTVL
